Results on 1 protein are retold here after US20210246178A1 (DEUTSCHES KREBSFORSCHUNGSZENTRUM STIFTUNG DES FFENTLICHEN …, published 2021).

This data set concerns the molecule itself. Nature of the data set: X-ray crystal structure, 1.53 Å.

B1: MSBI1.176 Rep protein WH1 domain (residues 1-135) (other)
chain: MSDLIVKDNALMNASYNLALVEQRLILLAIIEARETGKGINANDPLTVHASSYINQFNVERHTAYQALKDACKDLFARQFSYQEKRERGRINITSRWVSQIGYMDDTATVEIIFAPAVVPLITRLEEQFTQYDIE
notes: This entry is one protomer; Two protomers (A and B) form the WH1 homodimer in the crystal, so the self-pair is written as m1 with m1; The construct of residues 1-135 was expressed in E. coli as a His-tagged fusion in modified pMal-c2X and cleaved with HRV-3C protease; also called MSBI1.176 WH1; MSBI1 WH1
With B1, the binding result is “binds”.
